# From paper PMC9105384, “Ethyl Gallate Dual-Targeting PTPN6 and PPARγ Shows Anti-Diabetic and Anti-Obese Effects” (International Journal of Molecular Sciences, 2022)
# Substrate: Cc1cc(=O)oc2c(F)c(OP(=O)(O)O)c(F)cc12
# Experiment: purified protein, by the assay type
# Set-up: DiFMUP hydrolysis by purified PTPs, fluorescence Ex355/Em460, initial rates over 10 min; Michaelis-Menten and Lineweaver-Burk Km
# Description: The enzymatic activity of each PTP was evaluated using 6,8-difluoro-4-methylumbelliferyl phosphate (DiFMUP) as the surrogate substrate. To reach within the range of the initial rate (v0) during the measurement for 10 min, the pH and concentration of each PTP were optimized and are listed in Table S3. To determine the Km values, each PTP with optimized concentration was added to the reaction buffer (20 mM Bis-Tris at pH 6.0 or Tris at pH 7.0 and 8.0, 150 mM NaCl, 2.5 mM dithiothreitol (DTT), 0.01% Triton X-100) containing various concentrations of DiFMUP to obtain a final volume of 100 μL in a 96-well plate. Fluorescence intensities were measured once every minute for a complete 10 min duration using a Victor™ X4 Multilabel Plate Reader (Perkin Elmer, Waltham, MA, USA) at excitation/emission = 355 nm/460 nm. The initial rates of the reaction were determined using a previously described procedure for calculating the amount of product formation. To screen a library of 1033 natural products (Chengdu Biopurify Phytochemicals Ltd., Chengdu, China) against 20 PTPs, each PTP with an optimized concentration was added to the reaction buffer with an optimized pH containing DiFMUP (2 × Km for each PTP) after adding each compound (20 μM). […] The IC50 values were estimated using a sigmoid plot in GraphPad Prism 5 software (GraphPad Software Inc., San Diego, CA, USA). The Hill coefficient (nH), the degree of cooperativity, was calculated according to a previously published method. To determine the inhibition constant (Ki) and identify the inhibition mode of EG, various concentrations of EG (2.5, 5, 10, and 20 μM) were assayed with various concentrations of DiFMUP (260, 130, 65, and 32.5 μM). Kinetic parameters were obtained using Dixon plots for Ki and Lineweaver-Burk plots for the inhibition mode.
protein,measurement,value
SSH2 (Homo sapiens) (protein) MALVTVQRSPTPSTTSSPCASEADSGEEECRSQPRSISESFLTVKGAALFLPRGNGSSTPRISHRRNKHAGDLQQHLQAMFILLRPEDNIRLAVRLESTYQNRTRYMVVVSTNGRQDTEESIVLGMDFSSNDSSTCTMGLVLPLWSDTLIHLDGDGGFSVSTDNRVHIFKPVSVQAMWSALQSLHKACEVARAHNYYPGSLFLTWVSYYESHINSDQSSVNEWNAMQDVQSHRPDSPALFTDIPTERERTERLIKTKLREIMMQKDLENITSKEIRTELEMQMVCNLREFKEFIDNEMIVILGQMDSPTQIFEHVFLGSEWNASNLEDLQNRGVRYILNVTREIDNFFPGVFEYHNIRVYDEEATDLLAYWNDTYKFISKAKKHGSKCLVHCKMGVSRSASTVIAYAMKEYGWNLDRAYDYVKERRTVTKPNPSFMRQLEEYQGILLASKQRHNKLWRSHSDSDLSDHHEPICKPGLELNKKDITTSADQIAEVKTMESHPPIPPVFVEHMVPQDANQKGLCTKERMICLEFTSREFHAGQIEDELNLNDINGCSSGCCLNESKFPLDNCHASKALIQPGHVPEMANKFPDLTVEDLETDALKADMNVHLLPMEELTSPLKDPPMSPDPESPSPQPSCQTEISDFSTDRIDFFSALEKFVELSQETRSRSFSHSRMEELGGGRNESCRLSVVEVAPSKVTADDQRSSSLSNTPHASEESSMDEEQSKAISELVSPDIFMQSHSENAISVKEIVTEIESISQGVGQIQLKGDILPNPCHTPKKNSIHELLLERAQTPENKPGHMEQDEDSCTAQPELAKDSGMCNPEGCLTTHSSIADLEEGEPAEGEQELQGSGMHPGAKWYPGSVRRATLEFEERLRQEQEHHGAAPTCTSLSTRKNSKNDSSVADLAPKGKSDEAPPEHSFVLKEPEMSKGKGKYSGSEAGSLSHSEQNATVPAPRVLEFDHLPDPQEGPGSDTGTQQEGVLKDLRTVIPYQESETQAVPLPLPKRVEIIEYTHIVTSPNHTGPGSEIATSEKSGEQGLRKVNMEKSVTVLCTLDENLNRTLDPNQVSLHPQVLPLPHSSSPEHNRPTDHPTSILSSPEDRGSSLSTALETAAPFVSHTTHLLSASLDYLHPQTMVHLEGFTEQSSTTDEPSAEQVSWEESQESPLSSGSEVPYKDSQLSSADLSLISKLGDNTGELQEKMDPLPVACRLPHSSSSENIKSLSHSPGVVKERAKEIESRVVFQAGLTKPSQMRRSASLAKLGYLDLCKDCLPEREPASCESPHLKLLQPFLRTDSGMHAMEDQESLENPGAPHNPEPTKSFVEQLTTTECIVQSKPVERPLVQYAKEFGSSQQYLLPRAGLELTSSEGGLPVLQTQGLQCACPAPGLAVAPRQQHGRTHPLRRLKKANDKKRTTNPFYNTM,Km,215.3 µM
PTPN2 (Homo sapiens) (protein) MPTTIEREFEELDTQRRWQPLYLEIRNESHDYPHRVAKFPENRNRNRYRDVSPYDHSRVKLQNAENDYINASLVDIEEAQRSYILTQGPLPNTCCHFWLMVWQQKTKAVVMLNRIVEKESVKCAQYWPTDDQEMLFKETGFSVKLLSEDVKSYYTVHLLQLENINSGETRTISHFHYTTWPDFGVPESPASFLNFLFKVRESGSLNPDHGPAVIHCSAGIGRSGTFSLVDTCLVLMEKGDDINIKQVLLNMRKYRMGLIQTPDQLRFSYMAIIEGAKCIKGDSSIQKRWKELSKEDLSPAFDHSPNKIMTEKYNGNRIGLEEEKLTGDRCTGLSSKMQDTMEENSESALRKRIREDRKATTAQKVQQMKQRLNENERKRKRWLYWQPILTKMGFMSVILVGAFVGWTLFFQQNAL,Km,20.0 µM
PTPN3 (Homo sapiens) (protein) MTSRLRALGGRINNIRTSELPKEKTRSEVICSIHFLDGVVQTFKVTKQDTGQVLLDMVHNHLGVTEKEYFGLQHDDDSVDSPRWLEASKAIRKQLKGGFPCTLHFRVRFFIPDPNTLQQEQTRHLYFLQLKMDICEGRLTCPLNSAVVLASYAVQSHFGDYNSSIHHPGYLSDSHFIPDQNEDFLTKVESLHEQHSGLKQSEAESCYINIARTLDFYGVELHSGRDLHNLDLMIGIASAGVAVYRKYICTSFYPWVNILKISFKRKKFFIHQRQKQAESREHIVAFNMLNYRSCKNLWKSCVEHHTFFQAKKLLPQEKNVLSQYWTMGSRNTKKSVNNQYCKKVIGGMVWNPAMRRSLSVEHLETKSLPSRSPPITPNWRSPRLRHEIRKPRHSSADNLANEMTYITETEDVFYTYKGSLAPQDSDSEVSQNRSPHQESLSENNPAQSYLTQKSSSSVSPSSNAPGSCSPDGVDQQLLDDFHRVTKGGSTEDASQYYCDKNDNGDSYLVLIRITPDEDGKFGFNLKGGVDQKMPLVVSRINPESPADTCIPKLNEGDQIVLINGRDISEHTHDQVVMFIKASRESHSRELALVIRRRAVRSFADFKSEDELNQLFPEAIFPMCPEGGDTLEGSMAQLKKGLESGTVLIQFEQLYRKKPGLAITFAKLPQNLDKNRYKDVLPYDTTRVLLQGNEDYINASYVNMEIPAANLVNKYIATQGPLPHTCAQFWQVVWDQKLSLIVMLTTLTERGRTKCHQYWPDPPDVMNHGGFHIQCQSEDCTIAYVSREMLVTNTQTGEEHTVTHLQYVAWPDHGVPDDSSDFLEFVNYVRSLRVDSEPVLVHCSAGIGRTGVLVTMETAMCLTERNLPIYPLDIVRKMRDQRAMMVQTSSQYKFVCEAILRVYEEGLVQMLDPS,Km,2.0 µM
PTPN7 (Homo sapiens) (protein) MVQAHGGRSRAQPLTLSLGAAMTQPPPEKTPAKKHVRLQERRGSNVALMLDVRSLGAVEPICSVNTPREVTLHFLRTAGHPLTRWALQRQPPSPKQLEEEFLKIPSNFVSPEDLDIPGHASKDRYKTILPNPQSRVCLGRAQSQEDGDYINANYIRGYDGKEKVYIATQGPMPNTVSDFWEMVWQEEVSLIVMLTQLREGKEKCVHYWPTEEETYGPFQIRIQDMKECPEYTVRQLTIQYQEERRSVKHILFSAWPDHQTPESAGPLLRLVAEVEESPETAAHPGPIVVHCSAGIGRTGCFIATRIGCQQLKARGEVDILGIVCQLRLDRGGMIQTAEQYQFLHHTLALYAGQLPEEPSP,Km,25.5 µM
PTPN9 (Homo sapiens) (protein) MEPATAPRPDMAPELTPEEEQATKQFLEEINKWTVQYNVSPLSWNVAVKFLMARKFDVLRAIELFHSYRETRRKEGIVKLKPHEEPLRSEILSGKFTILNVRDPTGASIALFTARLHHPHKSVQHVVLQALFYLLDRAVDSFETQRNGLVFIYDMCGSNYANFELDLGKKVLNLLKGAFPARLKKVLIVGAPIWFRVPYSIISLLLKDKVRERIQILKTSEVTQHLPRECLPENLGGYVKIDLATWNFQFLPQVNGHPDPFDEIILFSLPPALDWDSVHVPGPHAMTIQELVDYVNARQKQGIYEEYEDIRRENPVGTFHCSMSPGNLEKNRYGDVPCLDQTRVKLTKRSGHTQTDYINASFMDGYKQKNAYIGTQGPLENTYRDFWLMVWEQKVLVIVMTTRFEEGGRRKCGQYWPLEKDSRIRFGFLTVTNLGVENMNHYKKTTLEIHNTEERQKRQVTHFQFLSWPDYGVPSSAASLIDFLRVVRNQQSLAVSNMGARSKGQCPEPPIVVHCSAGIGRTGTFCSLDICLAQLEELGTLNVFQTVSRMRTQRAFSIQTPEQYYFCYKAILEFAEKEGMVSSGQNLLAVESQ,Km,110 µM
